{"source": "patent US20200270347A1", "about": "(Hoffmann-La Roche, published 2020)", "binders": {"B1": {"name": "TYRP1 TCB CD3opt (bispecific antibody, human IgG1, kappa, L234A L235A)", "heavy 1": "not shown", "heavy 2": "QVQLVQSGAEVKKPGASVKVSCKASGFNIKDYFLHWVRQAPGQGLEWMGWINPDNGNTVYAQKFQGRVTMTADTSTSTVYMELSSLRSEDTAVYYCTRRDYTYEKAALDYWGQGTLVTVSSASTKGPSVFPLAPSSKSTSGGTAALGCLVEDYFPEPVTVSWNSGALTSGVHTFPAVLQSSGLYSLSSVVTVPSSSLGTQTYICNVNHKPSNTKVDEKVEPKSCDKTHTCPPCPAPEAAGGPSVFLFPPKPKDTLMISRTPEVTCVVVDVSHEDPEVKFNWYVDGVEVHNAKTKPREEQYNSTYRVVSVLTVLHQDWLNGKEYKCKVSNKALGAPIEKTISKAKGQPREPQVCTLPPSRDELTKNQVSLSCAVKGFYPSDIAVEWESNGQPENNYKTTPPVLDSDGSFFLVSKLTVDKSRWQQGNVFSCSVMHEALHNHYTQKSLSLSP", "light 1": "DIQMTQSPSSLSASVGDRVTITCRASGNIYNYLAWYQQKPGKVPKLLIYDAKTLADGVPSRFSGSGSGTDFTLTISSLQPEDVATYYCQHFWSLPFTFGQGTKLEIKRTVAAPSVFIFPPSDRKLKSGTASVVCLLNNFYPREAKVQWKVDNALQSGNSQESVTEQDSKDSTYSLSSTLTLSKADYEKHKVYACEVTHQGLSSPVTKSFNRGEC", "light 2": "EVQLLESGGGLVQPGGSLRLSCAASGFQFSSYAMNWVRQAPGKGLEWVSRIRSKYNNYATYYADSVKGRFTISRDDSKNTLYLQMNSLRAEDTAVYYCVRHTTFPSSYVSYYGYWGQGTLVTVSSASVAAPSVFIFPPSDEQLKSGTASVVCLLNNFYPREAKVQWKVDNALQSGNSQESVTEQDSKDSTYSLSSTLTLSKADYEKHKVYACEVTHQGLSSPVTKSFNRGEC", "notes": "two TYRP1 Fabs, one CD3opt crossover Fab"}, "B2": {"name": "TYRP1 TCB CD3orig (bispecific antibody, human IgG1, kappa, L234A L235A)", "heavy 1": "not shown", "heavy 2": "B1 heavy 2", "light 1": "B1 light 1", "light 2": "B1 light 2 with Q28T, S31T, T102G, T103N, P105G, S106N, Y111W, Y112F, G113A", "notes": "2+1 IgG CrossFab, inverted, with charge modifications"}, "B3": {"name": "EGFRvIII antibody P063.056 IgG1 PGLALA (antibody, V domains shown)", "VH": "EVQLVQSGAEVKKPGESLKISCKGSGYSFDSYWIAWVRQMPGKGLEWMGVIHPYDSDTRYSPSFQGQVTISADKSISTAYLQWSSLKASDTAMYYCARVSRSSYAFDYWGQGTLVTVSS", "VL": "not shown", "notes": "Anti-EGFRvIII PGLALA IgG (human IgG1)"}, "B4": {"name": "EGFRvIII antibody P065.036 IgG1 PGLALA (antibody, V domains shown)", "VH": "B3 VH with F106L", "VL": "not shown", "notes": "as for B3"}, "B5": {"name": "EGFRvIII antibody P064.078 IgG1 PGLALA (antibody, V domains shown)", "VH": "B3 VH with S102L, F106L", "VL": "not shown", "notes": "as for B3"}, "B6": {"name": "TYRP1 IgG (antibody, V domains shown)", "VH": "QVQLVQSGAEVKKPGASVKVSCKASGFNIKDYFLHWVRQAPGQGLEWMGWINPDNGNTVYAQKFQGRVTMTADTSTSTVYMELSSLRSEDTAVYYCTRRDYTYEKAALDYWGQGTLVTVSS", "VL": "DIQMTQSPSSLSASVGDRVTITCRASGNIYNYLAWYQQKPGKVPKLLIYDAKTLADGVPSRFSGSGSGTDFTLTISSLQPEDVATYYCQHFWSLPFTFGQGTKLEIK", "notes": "IgG format; constant regions not specified"}, "B7": {"name": "CD3opt human IgG1 PGLALA (antibody, V domains shown)", "VH": "EVQLLESGGGLVQPGGSLRLSCAASGFQFSSYAMNWVRQAPGKGLEWVSRIRSKYNNYATYYADSVKGRFTISRDDSKNTLYLQMNSLRAEDTAVYYCVRHTTFPSSYVSYYGYWGQGTLVTVSS", "VL": "QAVVTQEPSLTVSPGGTVTLTCGSSTGAVTTSNYANWVQEKPGQAFRGLIGGTNKRAPGTPARFSGSLLGGKAALTLSGAQPEDEAEYYCALWYSNLWVFGGGTKLTVLR", "notes": "Human IgG1 format with P329G L234A L235A (PGLALA); also called CD3opt IgG PGLALA"}, "B8": {"name": "CD3orig human IgG1 PGLALA (antibody, V domains shown)", "VH": "not shown", "VL": "B7 VL", "notes": "Human IgG1 format with P329G L234A L235A (PGLALA) in the Fc by the text; also called CD3orig IgG PGLALA"}}, "key": {"[1]": {"target": "T1, heterodimer of cynomolgus CD3 delta and CD3 epsilon ectodomains fused to a human Fc domain with … (cynomolgus)", "T1 construct": "Each entry is the whole fusion chain; also called Cynomolgus CD3 epsilon stalk-Fc(knob)-Avi / Cynomolgus CD3 delta stalk-Fc(hole)-Avi", "experiment": "SPR, TCB captured with anti-PGLALA antibody, CD3 antigen as analyte, 1:1 Langmuir"}, "[2]": {"target": "T2, heterodimer of human CD3 delta and CD3 epsilon ectodomains fused to a human Fc domain with knob-into-hole … (human)", "T2 construct": "Each entry is the whole fusion chain (ectodomain, stalk, Fc, Avi-tag); also called recombinant CD3; recombinant human CD3", "experiment": "SPR, TCB captured with anti-PGLALA antibody, CD3 antigen as analyte, 1:1 Langmuir"}, "[3]": {"target": "T2, heterodimer of human CD3 delta and CD3 …", "experiment": "SPR, relative active concentration after stress"}, "[4]": {"target": "T3, recombinant TYRP1 (Sino Biologicals) (human, UniProt P17643 25-477, limits assumed)", "T3 construct": "Bought protein; also called human TYRP1", "experiment": "SPR, relative active concentration as for CD3, with recombinant TYRP1 (Sino Biologicals) as antigen; sample: 14d pH 7.4, 37°C"}, "[5]": {"target": "TYRP1 on the melanoma cell line M150543 (human, UniProt P17643 25-537)", "experiment": "cell-based or functional assay"}, "[6]": {"target": "T3, recombinant TYRP1 (Sino Biologicals)", "experiment": "SPR, relative active concentration as for CD3, with recombinant TYRP1 (Sino Biologicals) as antigen; sample: 14d pH 6.0, 40°C"}, "[7]": {"target": "T3, recombinant TYRP1 (Sino Biologicals)", "experiment": "SPR, relative active concentration as for CD3, with recombinant TYRP1 (Sino Biologicals) as antigen; sample: unstressed"}, "EGFRvIII-ECD avi his [8]": {"target": "T4, EGFRvIII-ECD avi his (human)", "T4 construct": "Extracellular domain of human EGFRvIII fused to an Avi-tag and a His-tag at the C-terminus; the entry is the whole construct; also called recombinant EGFRvIII; EGFRvIII antigen", "experiment": "SPR, PGLALA IgG captured with anti-PGLALA antibody, EGFRvIII-ECD avi his as analyte, 1:1 Langmuir, 25° C."}, "[9]": {"target": "EGFRwt ECD antigen (His-tagged, captured with anti-His) (human, UniProt P00533 25-645)", "experiment": "SPR, ECD antigen captured with anti-His, single injection of antibody at 500 nM"}, "EGFRvIII-ECD avi his [10]": {"target": "T4, EGFRvIII-ECD avi his", "experiment": "SPR, ECD antigen captured with anti-His, single injection of antibody at 500 nM"}, "[11]": {"target": "T5, wild-type EGFR on MKN-45 cells (human, UniProt P00533 25-1210)", "T5 construct": "MKN-45 is the wild-type EGFR line used to exclude crossreactivity; also called EGFRwt", "experiment": "flow cytometry on MKN-45 cells (wild-type EGFR), IgG PGLALA"}, "[12]": {"target": "T6, EGFRvIII expressed on the cell surface (CHO-EGFRvIII, DK-MG, U87MG-EGFRvIII cells) (human, UniProt P00533 298-1210)", "T6 construct": "The cell line of each result is named under assay; Species is stated for the U87 transfectant (human EGFRvIII protein) and the entry; also called EGFRvIII positive cells", "experiment": "flow cytometry on U87MG-EGFRvIII cells, IgG PGLALA"}, "[13]": {"target": "T7, human CD3 expressed on Jurkat NFAT reporter cells (human, UniProt P07766 23-207)", "T7 construct": "CD3 complex on cells; also called CD3 on Jurkat cells; CD3 expressing cells", "T7 sequence (P07766 23-207 limits assumed)": "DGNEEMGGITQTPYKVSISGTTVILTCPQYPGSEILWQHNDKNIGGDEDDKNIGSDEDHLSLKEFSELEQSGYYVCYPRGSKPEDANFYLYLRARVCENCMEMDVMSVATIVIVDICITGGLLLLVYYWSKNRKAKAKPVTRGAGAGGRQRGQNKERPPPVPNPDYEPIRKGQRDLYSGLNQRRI", "experiment": "flow cytometry on Jurkat NFAT cells, PE-labelled anti-human Fc secondary antibody"}}, "note": "Changes are numbered by the printed parent chain. In names and notes the source's numbering stands."}
{"binder": "B1", "values": [{"measurement": "Kd", "setting": "[1]", "value": 20, "unit": "nM"}, {"measurement": "Kd", "setting": "[2]", "value": 50, "unit": "nM"}, {"measurement": "binding activity to CD3 after 2 weeks at pH 7.4, 37° C., relative to 2 weeks at pH 6, -80° C.", "setting": "[3]", "value": "> 90", "unit": "%"}, {"measurement": "Tyrp1 Binding Activity (%)", "setting": "[4]", "value": 101, "unit": "%"}, {"measurement": "EC50 of tumor cell killing at 48 h (LDH release), PBMC donor 1", "setting": "[5]", "value": 0.31, "unit": "nM"}, {"measurement": "EC50 of tumor cell killing at 48 h (LDH release), PBMC donor 2", "setting": "[5]", "value": 0.03, "unit": "nM"}, {"measurement": "EC50 of tumor cell killing at 48 h (LDH release), PBMC donor 3", "setting": "[5]", "value": 0.08, "unit": "nM"}, {"measurement": "Tyrp1 Binding Activity (%)", "setting": "[6]", "value": 101, "unit": "%"}, {"measurement": "Tyrp1 Binding Activity (%)", "setting": "[7]", "value": 100, "unit": "%"}]}
{"binder": "B2", "values": [{"measurement": "Kd", "setting": "[2]", "value": 50, "unit": "nM"}, {"measurement": "Tyrp1 Binding Activity (%)", "setting": "[4]", "value": 103, "unit": "%"}, {"measurement": "EC50 of tumor cell killing at 48 h (LDH release), PBMC donor 1", "setting": "[5]", "value": 0.44, "unit": "nM"}, {"measurement": "EC50 of tumor cell killing at 48 h (LDH release), PBMC donor 2", "setting": "[5]", "value": 0.05, "unit": "nM"}, {"measurement": "EC50 of tumor cell killing at 48 h (LDH release), PBMC donor 3", "setting": "[5]", "value": 0.14, "unit": "nM"}, {"measurement": "Tyrp1 Binding Activity (%)", "setting": "[6]", "value": 98, "unit": "%"}, {"measurement": "Tyrp1 Binding Activity (%)", "setting": "[7]", "value": 100, "unit": "%"}]}
{"binder": "B3", "values": [{"measurement": "Kd", "setting": "EGFRvIII-ECD avi his [8]", "value": 10, "unit": "nM"}, {"measurement": "response units", "setting": "[9]", "value": "< 5", "unit": "RU"}, {"measurement": "response units", "setting": "EGFRvIII-ECD avi his [10]", "value": "> 50", "unit": "RU"}, {"measurement": "binding result", "setting": "[11]", "value": "no binding (tested: about 140 nM)"}]}
{"binder": "B4", "values": [{"measurement": "Kd", "setting": "EGFRvIII-ECD avi his [8]", "value": 10, "unit": "nM"}, {"measurement": "response units", "setting": "[9]", "value": "> 5", "unit": "RU"}, {"measurement": "response units", "setting": "EGFRvIII-ECD avi his [10]", "value": "> 50", "unit": "RU"}]}
{"binder": "B5", "values": [{"measurement": "Kd", "setting": "EGFRvIII-ECD avi his [8]", "value": 15, "unit": "nM"}, {"measurement": "response units", "setting": "[9]", "value": "> 5", "unit": "RU"}, {"measurement": "response units", "setting": "EGFRvIII-ECD avi his [10]", "value": "> 50", "unit": "RU"}, {"measurement": "EC50 (read off the curve)", "setting": "[12]", "value": "~3", "unit": "nM"}]}
{"binder": "B6", "values": [{"measurement": "Tyrp1 Binding Activity (%)", "setting": "[4]", "value": 101, "unit": "%"}, {"measurement": "Tyrp1 Binding Activity (%)", "setting": "[6]", "value": 97, "unit": "%"}, {"measurement": "Tyrp1 Binding Activity (%)", "setting": "[7]", "value": 100, "unit": "%"}]}
{"binder": "B7", "values": [{"measurement": "EC50 (read off the curve)", "setting": "[13]", "value": "~0.5", "unit": "nM"}, {"measurement": "binding activity to CD3 after 2 weeks at pH 7.4, 37° C., relative to 2 weeks at pH 6, -80° C.", "setting": "[3]", "value": "> 90", "unit": "%"}]}
{"binder": "B8", "values": [{"measurement": "EC50 (read off the curve)", "setting": "[13]", "value": "~0.8", "unit": "nM"}]}
